Measured values published in article PMC9703140 (Nature chemical biology, 2022).

Experiments:
[1] = biological target: T1, MHC-related protein 1 (MR1), hpMR1 (Homo sapiens, UniProt Q95460); assay: DSF of refolded complex; type: binding
[2] = biological target: T1, MHC-related protein 1 (MR1), hpMR1; assay: 1D […] NMR titration; type: binding
[3] = biological target: TAPBPR^WT (luminal domain of TAPBPR C94S); assay: SPR

| Compound | Kd [3] | further results |
| --- | --- | --- |
| O=Cc1c(O)ccc2ccccc12 [2OH1NA, 2-hydroxy-1-naphthaldehyde] |  | DSF of refolded complex (Tm 55.3 °C); NMR methyl HMQC [1]: 55.3 °C |
| O=C(O)Cc1ccccc1Nc1c(Cl)cc(F)cc1Cl [19F-DCF, 2-(2-((2,6-dichloro-4-fluorophenyl)amino)phenyl)acetic acid] |  | Kd [2]: 36.1 µM |
| Ac-6-FP loaded hMR1 C262S/hβ2m (from UniProt P61769 21-119) (complex) | 100 µM |  |
| Ac-6-FP loaded hMR1/hβ2m (wild type) (from UniProt P61769 21-119) (complex) | 100 µM |  |
| TAX9/HLA-A*02:01/hβ2m (from UniProt P61769 21-119) (peptide-MHC) | 18.5 µM |  |

Continued, in another order:

| Kd [3] | Compound | further results |
| --- | --- | --- |
| 104 µM | Ac-6-FP–hpMR1–bβ2m (from UniProt Q95460 23-290; P01888 21-118) (complex) |  |
| 0.082 µM | UV-irradiated HLA-A*02:01/hβ2m (empty, peptide-deficient) (from UniProt P61769 21-119) (complex) |  |
